Reference: patent publication US20240410900A1 (Hoffmann-La Roche, published 2024)

How the values were obtained:
[1] = biological target: T1, anti-IGF-1R antibody (IgG1 subclass with mutations I253A/H310A/H435A); experiment: ELISA assay C, tracer FcγRI-Dig, target 50 ng/mL
T1 construct: Positions are EU numbers; also called sample 3; antibody 3

[2] = biological target: T2, anti-P-Selectin antibody (IgG4 subclass with mutations S228P/L235E); experiment: ELISA assay C, tracer FcγRI-Dig, target 0 ng/mL (blank)
T2 construct: Positions are EU numbers; also called sample 4; antibody 4

[3] = biological target: T3, anti-VEGF/ANG2 antibody (wild-type IgG1 subclass) (UniProt P01857-1 1-330 = IgG part); experiment: as above
T3 construct: also called sample 5; antibody 5

[4] = biological target: T4, anti-VEGF/ANG2 antibody (IgG1 subclass with mutations P329G/L234A/L235A/I253A/H310A/H435A); experiment: as above
T4 construct: Format of the bispecific antibody not described; Positions are EU numbers, not positions on the UniProt entry; also called sample 1; antibody 1

[5] = biological target: T5, anti-VEGF/ANG2 antibody (IgG1 subclass with mutations P329G/L234A/L235A); experiment: as above
T5 construct: Positions are EU numbers; also called sample 2; antibody 2

[6] = biological target: T1, anti-IGF-1R antibody (IgG1 subclass …); experiment: as above
[7] = biological target: T2, anti-P-Selectin antibody (IgG4 subclass …); experiment: ELISA assay B, tracer M1.7.10-Dig, target 50 ng/mL
Procedure: (§1) Biotinylated anti-PG Fc-region antibody or biotinylated anti-AAA Fc-region antibody, respectively, was bound to the wells of a streptavidin-coated multi-well plate (SA-MTP) to produce a capture plate. Excess of unbound antibody was removed by washing. Sample/standard antibodies spiked in human and cynomolgus monkey serum (10% final concentration) was added to wells of the SA-MTP multi-well plate coated with the capture plate and incubated for 1 hour at room temperature. After washing, the wells were incubated with digoxygenylated anti-human kappa antibody M1.7.10 (see e.g. WO 2011/048043, incorporated herein by reference). After washing the bound digoxygenylated anti-human kappa antibody complex was incubated with a horseradish peroxidase (HRP) labelled anti-digoxygenin antibody. After another washing step, an ABTS solution was added to the wells and incubated. The product of the color reaction was measured by Elisa reader at 405 nm wavelength (reference wavelength: 490 nm). Absorbance values of each sample or standard were determined in triplicates.

[8] = biological target: T3, anti-VEGF/ANG2 antibody (wild-type IgG1 …); experiment: ELISA assay B, tracer M1.7.10-Dig, target 50 ng/mL
Procedure: as §1

[9] = biological target: T4, anti-VEGF/ANG2 antibody (IgG1 subclass …); experiment: ELISA assay B, tracer M1.7.10-Dig, target 50 ng/mL
Procedure: as §1

[10] = biological target: T5, anti-VEGF/ANG2 antibody (IgG1 subclass …); experiment: ELISA assay B, tracer M1.7.10-Dig, target 50 ng/mL
Procedure: as §1

[11] = biological target: T1, anti-IGF-1R antibody (IgG1 subclass …); experiment: ELISA assay B, tracer M1.7.10-Dig, target 50 ng/mL
Procedure: as §1

[12] = biological target: T4, anti-VEGF/ANG2 antibody (IgG1 subclass …); experiment: bridging ELISA, target-Bi capture and target-Dig tracer, binder 125 ng/mL, against the blank
Procedure: A dilution series of the monomeric full-length anti-PG Fc-region antibody clone 1.3.17 was prepared as standards for checking the possibility of generating a standard curve.
Biotinylated anti-VEGF/ANG2 antibody with the mutations P329G, L234A, L235A, I253A, H310A, and H435A and digoxygenylated anti-VEGF/ANG2 antibody with the mutations P329G, L234A, L235A, 1253A, H310A, and H435A were pre-incubated with the standards overnight at room temperature. After pre-incubation, the samples were transferred to a streptavidin-coated multi-well plate and incubated for 1 hour at room temperature. Excess of unbound antibody was removed by washing. After a washing step the bound digoxygenylated complexes comprising biotinylated and digoxygenylated anti-VEGF/ANG2 antibody with the mutations P329G, L234A, L235A, 1253A, H310A, and H435A as well as the monomeric, full-length anti-PG Fc-region antibody M1.3.17 (SEQ ID NO: 03 and 04) were detected with an horseradish peroxidase (HRP) labelled anti-digoxygenin-antibody. After a washing step and upon incubation with the respective substrate the HRP present in the formed complex catalyzes the conversion of ABTS into a colored product. The signal was measured by Elisa reader at 405 nm wavelength (reference wavelength: 490 nm). Absorbance values of each serum sample were determined in triplicates.

[13] = biological target: T6, drug antibody (capture and tracer of the bridging immunoassay of FIGS. 2, 7 and 8; not named); experiment: bridging immunoassay, drug antibody as capture and tracer, binder at 1000 ng/mL
T6 construct: also called the same but differently derivatized drug antibodies

[14] = biological target: T6, drug antibody (capture and tracer of …); experiment: bridging immunoassay, drug antibody as capture and tracer, binder at 2,500 ng/ml

signal [OD405 nm] [1] | signal [OD405 nm] [2] | signal [OD405 nm] [3] | signal [OD405 nm] [4] | signal [OD405 nm] [5] | signal [OD405 nm] [6] | signal [OD405 nm] [7] | signal [OD405 nm] [8] | signal [OD405 nm] [9] | signal [OD405 nm] [10] | signal [OD405 nm] [11] | signal to noise ratio [12] | signal-to-noise ratio (S/N) [13] | signal-to-noise ratio [14] | Binder
1.06 OD405 nm | 0.077 OD405 nm | 0.069 OD405 nm | 0.077 OD405 nm | 0.064 OD405 nm | 0.069 OD405 nm | 0.047 OD405 nm | 0.049 OD405 nm | 0.05 OD405 nm | 0.127 OD405 nm | 2.9 OD405 nm |  |  |  | anti-AAA variant Fc-region antibody M1.6.22 (antibody, V domains shown, Murine variable domains; also called M1.6.22-Bi) VH: EVQLVESGGDLVKPGGSLKLSCAASGFTFSSYGMSWVRQTPDKRLEWVATISSGGSYIYYPDSVKGRFTISRDNAKNTLYLQMSSLKSEDTAMYYCARLGMITTGYAMDYWGQGTSVTVSS VL: DVLMTQTPLSLPVSLGDQASISCRSSQTIVHSTGHTYLEWFLQKPGQSPKLLIYKVSNRFSGVPDRFSGSGSGTDFTLKISRVEAEDLGVYYCFQGSHVPYTFGGGTKLEIK
1.21 OD405 nm | 1.19 OD405 nm | 1.2 OD405 nm | 1.18 OD405 nm | 1.23 OD405 nm | 1.22 OD405 nm | 0.049 OD405 nm | 0.042 OD405 nm | 0.035 OD405 nm | 0.215 OD405 nm | 0.048 OD405 nm | 1.85 |  |  | anti-PG variant Fc-region antibody M1.3.17 (antibody, V domains shown, Monomeric, bivalent full-length antibody with murine variable domains; Biotinylated when used as capture antibody; also called anti-PG antibody clone 1.3.17; M1.3.17-Bi) VH: EVKLLESGGGLVQPGGSLKLSCAASGIDFRRYWMNWVRQAPGKGLEWIGEIDPDSSTINYTPSLKDKFIISRDNAKNTMYLQMRKVRSEDTALYYCARPYDYGAWFAYWGQGTLVTVSA VL: QAVVTQESALTTSPGETVTLTCRSTTGAVTTSNYANWVQEKPDHLFTGLIGGTNKRAPGVPARFSGSLIGDKAALTITGAQTEDEAIYFCALWYSDHWVFGGGTKLTVL
0.095 OD405 nm | 0.076 OD405 nm | 0.073 OD405 nm | 0.076 OD405 nm | 0.092 OD405 nm | 0.086 OD405 nm | 0.043 OD405 nm | 0.04 OD405 nm | 0.06 OD405 nm | 3.17 OD405 nm | 0.064 OD405 nm |  | 3.8 | > 2 | anti-PG variant Fc-region antibody M1.7.24 (monomeric, bivalent) (antibody, V domains shown, Full-length Y-shaped antibody with murine variable domains; Biotinylated when used as capture antibody; also called anti-PG antibody clone 1.7.24; M1.7.24-Bi) VH: EVKLLESGGGLVQPGGSLKLSCAASGFDFSRYWMNWVRQAPGKGLEWIGEITPDSSTINYTPSLKDKFIISRDNAKNTLYLQMIKVRSEDTALYYCVRPYDYGAWFASWGQGTLVTVSA VL: QAVVTQESALTTSPGETVTLTCRSSTGAVTTSNYANWVQEKPDHLFTGLIGGTNKRAPGVPARFSGSLIGDKAALTITGAQTEDEAIYFCALWYSNHWVFGGGTKLTVL
